Results reported in the Human Domainome abundance scans (Beltran et al. 2025).

B1: Zinc finger MYM-type protein 2, residues 463 to 506; numbered along this chain, Q9UBW7 (parent)
chain: IMNCCEQCGEYLPSKGAGNNVLVIDGQQKRFCCQSCVSEYKQVG

Variants of: B1
Assay: abundance fitness (aPCA) (normalised: wild type 0, dead -1); higher = more abundant; growth selection in yeast, the domain comes from the species named
Settings: Homo sapiens

Abundance fitness, by site and new letter:
A17: K -0.521 | D 0.012 | V -0.223 | P -0.274 | R -0.628 | C -0.11 | E 0.116 | L -0.188 | Q -0.069 | H -0.337 | G -0.095 | T -0.309
G26: L -0.307 | C -0.059 | R -0.255 | E -0.077 | I -0.296 | T -0.291 | A -0.059 | M -0.384 | Y 0.285 | S -0.065 | K -0.251 | D 0.183 | V -0.243 | W -0.337 | Q -0.083
V23: G -0.107 | Q 0.181 | K -0.052 | R -0.011 | N -0.123 | Y -0.093 | L -0.235 | F 0.23 | E 0.204 | I 0.031 | A -0.121 | T 0.15 | D -0.017 | W -0.063 | H -0.079 | M 0.18 | S 0.025
P13: Q -0.063 | K -0.678 | C 0.105 | T -0.094 | G -0.278 | V -0.669 | R -0.515 | W -0.536 | M -0.59 | E -0.171 | L -0.438 | H -0.187 | S -0.207 | N -0.565
D25: M -0.35 | A -0.117 | G -0.076 | W -0.618 | R -0.229 | C -0.25 | E -0.11 | T -0.06 | H 0.126 | P -0.456 | K -0.155 | Q -0.367 | F -0.174 | L -0.455 | V -0.51 | S -0.279
Q27: E -0.1 | W -0.198 | F -0.173 | G -0.039 | S -0.172 | A -0.045 | C -0.084 | L -0.045 | R -0.206 | P -0.218 | V -0.144
I24: T 0.254 | S -0.09 | V -0.088 | C -0.124 | K -0.079 | F 0.052 | Q -0.177 | N -0.176 | R -0.085 | P -0.126 | W -0.05 | M -0.122 | A 0.005 | G -0.066
N19: H -0.157 | R -0.249 | M -0.061 | W -0.212 | F -0.023 | S 0.001 | E 0.338 | I -0.141 | K -0.287 | G 0.006 | C -0.069 | Q -0.107 | L -0.051
L12: A -0.246 | G -0.385 | M -0.46 | Q -0.294 | W -0.467 | P -0.14 | D -0.174 | C -0.384 | R -0.498 | Y -0.444 | N -0.482 | T -0.28 | S -0.501 | E -0.004 | K -0.312
R30: M 0.068 | G 0.026 | Y -0.354 | P 0.092 | D 0.165 | V 0.197 | Q 0.193 | E 0.3 | S 0.111 | K 0.216 | F -0.088 | H -0.464 | L 0.177 | C 0.262 | T 0.132
C32: L -0.451 | Y -0.634 | K -0.439 | R -0.298 | T -0.433 | W -0.559 | F -0.653 | P -0.454 | A -0.354 | N -0.655 | G -0.313 | V -0.36 | S -0.398 | Q -0.518 | M -0.537 | I -0.71 | E -0.339
N20: D -0.248 | V -0.019 | M -0.038 | Y -0.065 | G -0.119 | K -0.209 | W -0.191 | H 0.087
